Test [1] concerns the target Plk1 polo-box domain (PBD), purified protein of the fluorescence polarization assay. As to the kind of experiment: fluorescence polarisation.
Another test concerns the target HA-EGFP-Plk1, P53350. Kind of test: ELISA. The conditions noted are these: remark: other sources report otherwise. (An ELISA detects its analyte on a solid surface through an enzyme-linked reagent.)

By IC50 is commonly meant the concentration that gives 50% inhibition.

Where no end group is shown, it is not given here. [ ]: non-standard residue; d: D form. The star is where a group is joined. pT = C[C@@H](OP(=O)(O)O)[C@H](N)C(=O)O; Butyl(4-Ph) = c1ccc(CCCC*)cc1

Sequence of HA-EGFP-Plk1, P53350 (P53350 whole entry): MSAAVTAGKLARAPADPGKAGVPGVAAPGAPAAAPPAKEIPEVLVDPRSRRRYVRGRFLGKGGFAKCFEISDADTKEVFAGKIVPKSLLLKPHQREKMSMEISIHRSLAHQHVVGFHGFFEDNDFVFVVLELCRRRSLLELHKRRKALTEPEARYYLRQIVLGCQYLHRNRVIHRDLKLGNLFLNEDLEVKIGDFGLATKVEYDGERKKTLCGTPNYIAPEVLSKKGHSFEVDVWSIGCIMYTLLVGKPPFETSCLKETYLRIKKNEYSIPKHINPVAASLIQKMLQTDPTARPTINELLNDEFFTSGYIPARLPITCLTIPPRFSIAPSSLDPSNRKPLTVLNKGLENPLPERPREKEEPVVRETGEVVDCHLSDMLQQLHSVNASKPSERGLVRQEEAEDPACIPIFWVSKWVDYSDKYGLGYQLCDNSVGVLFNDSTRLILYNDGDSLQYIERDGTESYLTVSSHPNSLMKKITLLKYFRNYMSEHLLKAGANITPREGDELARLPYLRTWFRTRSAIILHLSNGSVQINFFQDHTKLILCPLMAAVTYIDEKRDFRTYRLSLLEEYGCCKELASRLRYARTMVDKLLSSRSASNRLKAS

B1: peptide GPMQSpTPLNG-OH (9) (peptide)
peptide: GPMQS[pT]PLNG-OH
modifications: N-terminus assumed
SMILES: CSCC[C@H](NC(=O)[C@@H]1CCCN1C(=O)CN)C(=O)N[C@@H](CCC(N)=O)C(=O)N[C@@H](CO)C(=O)N[C@H](C(=O)N1CCC[C@H]1C(=O)N[C@@H](CC(C)C)C(=O)N[C@@H](CC(N)=O)C(=O)NCC(=O)O)[C@@H](C)OP(=O)(O)O
As for B1, the IC50 in test [1] is 1.12 µM.

B2: peptide 7(S4A) (peptide)
peptide: P(Butyl(4-Ph))LHA[pT]
Regarding B2, the IC50 with HA-EGFP-Plk1, P53350 came out at 43 µM; in test [1], 4.15 µM.

B3: peptide 8 (peptide)
peptide: P(Butyl(4-Ph))LHS[pT]
The molecule B3 showed an IC50 in test [1] of 0.038 µM.

For the origin of these results see article PMC3355227.
